# Experimental data reported in patent US20230242651A1 (published 2023).
# T1: human interleukin-23 receptor (IL23R) (human, UniProt Q5VWK5 24-355, limits assumed)
# T1 construct: also called human IL23R
# T1 sequence (looked up): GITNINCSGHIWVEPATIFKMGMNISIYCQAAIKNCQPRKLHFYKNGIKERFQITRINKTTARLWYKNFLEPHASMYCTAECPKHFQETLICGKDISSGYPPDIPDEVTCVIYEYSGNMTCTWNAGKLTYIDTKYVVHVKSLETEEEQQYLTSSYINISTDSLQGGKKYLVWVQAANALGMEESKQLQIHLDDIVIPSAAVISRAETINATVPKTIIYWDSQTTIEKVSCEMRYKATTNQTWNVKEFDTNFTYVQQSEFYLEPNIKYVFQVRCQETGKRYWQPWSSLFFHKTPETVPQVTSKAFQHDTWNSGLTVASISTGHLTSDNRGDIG
# Legend:
# [1] = target: T1, human interleukin-23 receptor (IL23R); experiment: SPR; KD of the capped scFv over KD of its uncapped counterpart
# Method in brief: (§1)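 Humanized rabbit variable domains were made as single-chain variable fragments (scFv) on consensus germline framework pairs, with or without a λ-cap (Vκ framework IV replaced by a Vλ germline sequence). They were expressed in E. coli as inclusion bodies, solubilized and refolded in a generic refolding buffer. Affinity for human IL23R was measured by surface plasmon resonance, giving rate constants and dissociation constant, or the λ-capped over uncapped dissociation-constant ratio.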
# [2] = target: T1, human interleukin-23 receptor (IL23R); experiment: SPR, scFv
# Method in brief: as §1
# [3] = target: T1, human interleukin-23 receptor (IL23R); experiment: SPR, scFv (summary table)
# Method in brief: as §1
Binder,Ratio (capped/uncapped) of KD [1],Kd [2] [pM],koff [2] [s⁻¹],kon [2] [M⁻¹ s⁻¹],Kd [3] [pM]
"Vκ1/VH1A consensus λ-capped, human IL23R specific scFv (scFv, scFv VL-linker-VH, made in E. coli; also called Vκ1VH1A capped) scFv: DIQMTQSPSSLSASVGDRVTITCQASENIYSFLAWYQQKPGKAPKLLIYSASKLAAGVPSRFSGSGSGTDFTLTISSLQPEDFATYYCQQTNRYSNPDIYNVFGGGTKLTVLGGGGGSGGGGSGGGGSGGGGSQVQLVQSGAEVKKPGSSVKVSCKASGIDFNSNYYMCWVRQAPGQGLEWMGCIYVGSHVNTYYANWAKGRVTITADESTSTAYMELSSLRSEDTAVYYCATSGSSVLYFKFWGQGTLVTVSS",8.3,166,0.000616,3.71e+06,166
"Vκ1/VH1B consensus λ-capped, human IL23R specific scFv (scFv, scFv VL-linker-VH, made in E. coli; also called Vκ1VH1B capped) scFv: DIQMTQSPSSLSASVGDRVTITCQASENIYSFLAWYQQKPGKAPKLLIYSASKLAAGVPSRFSGSGSGTDFTLTISSLQPEDFATYYCQQTNRYSNPDIYNVFGGGTKLTVLGGGGGSGGGGSGGGGSGGGGSQVQLVQSGAEVKKPGASVKVSCKASGIDFNSNYYMCWVRQAPGQGLEWMGCIYVGSHVNTYYANWAKGRVTMTRDTSISTAYMELSSLRSEDTAVYYCATSGSSVLYFKFWGQGTLVTVSS",1.2,199,0.000478,2.4e+06,199
"Vκ2/VH6 consensus (uncapped), human IL23R specific scFv (scFv, scFv VL-linker-VH, made in E. coli; Vκ framework IV (uncapped, full consensus); also called Vκ2VH6 uncapped) scFv: DIVMTQSPLSLPVTPGEPASISCQASENIYSFLAWYLQKPGQSPQLLIYSASKLAAGVPDRFSGSGSGTDFTLKISRVEAEDVGVYYCQQTNRYSNPDIYNVFGQGTKVEIKRGGGGSGGGGSGGGGSGGGGSQVQLQQSGPGLVKPSQTLSLTCAISGIDFNSNYYMCWIRQSPGRGLEWLGCIYVGSHVNTYYANWAKGRITINPDTSKNQFSLQLNSVTPEDTAVYYCATSGSSVLYFKFWGQGTLVTVSS",–,3240,0.000288,88700,3240
"Vκ3/VH1A consensus (uncapped), human IL23R specific scFv (scFv, scFv VL-linker-VH, made in E. coli; Vκ framework IV (uncapped, full consensus); also called Vκ3VH1A uncapped) scFv: DIVLTQSPATLSLSPGERATLSCQASENIYSFLAWYQQKPGQAPRLLIYSASKLAAGVPARFSGSGSGTDFTLTISSLEPEDFAVYYCQQTNRYSNPDIYNVFGQGTKVEIKRGGGGSGGGGSGGGGSGGGGSQVQLVQSGAEVKKPGSSVKVSCKASGIDFNSNYYMCWVRQAPGQGLEWMGCIYVGSHVNTYYANWAKGRVTITADESTSTAYMELSSLRSEDTAVYYCATSGSSVLYFKFWGQGTLVTVSS",–,297,0.000479,1.61e+06,297

# More lines, now with the values ahead:
Ratio (capped/uncapped) of KD [1],Kd [2] [pM],koff [2] [s⁻¹],kon [2] [M⁻¹ s⁻¹],Kd [3] [pM],Binder
–,462,0.000363,786000,462,"Vκ3/VH2 consensus (uncapped), human IL23R specific scFv (scFv, scFv VL-linker-VH, made in E. coli; Vκ framework IV (uncapped, full consensus); also called Vκ3VH2 uncapped) scFv: DIVLTQSPATLSLSPGERATLSCQASENIYSFLAWYQQKPGQAPRLLIYSASKLAAGVPARFSGSGSGTDFTLTISSLEPEDFAVYYCQQTNRYSNPDIYNVFGQGTKVEIKRGGGGSGGGGSGGGGSGGGGSQVQLKESGPALVKPTQTLTLTCTFSGIDFNSNYYMCWIRQPPGKALEWLACIYVGSHVNTYYANWAKGRLTISKDTSKNQVVLTMTNMDPVDTATYYCATSGSSVLYFKFWGQGTLVTVSS"
0.6,22,6.38e-05,2.89e+06,22,"Vκ3/VH3 consensus λ-capped, human IL23R specific scFv (scFv, scFv VL-linker-VH, made in E. coli; also called Vκ3VH3 capped) scFv: DIVLTQSPATLSLSPGERATLSCQASENIYSFLAWYQQKPGQAPRLLIYSASKLAAGVPARFSGSGSGTDFTLTISSLEPEDFAVYYCQQTNRYSNPDIYNVFGGGTKLTVLGGGGGSGGGGSGGGGSGGGGSEVQLVESGGGLVQPGGSLRLSCAASGIDFNSNYYMCWVRQAPGKGLEWVSCIYVGSHVNTYYANWAKGRFTISRDNSKNTLYLQMNSLRAEDTAVYYCATSGSSVLYFKFWGQGTLVTVSS"
–,455,0.000724,1.59e+06,455,"Vκ3/VH1B consensus (uncapped), human IL23R specific scFv (scFv, scFv VL-linker-VH, made in E. coli; Vκ framework IV (uncapped, full consensus); also called Vκ3VH1B uncapped) scFv: DIVLTQSPATLSLSPGERATLSCQASENIYSFLAWYQQKPGQAPRLLIYSASKLAAGVPARFSGSGSGTDFTLTISSLEPEDFAVYYCQQTNRYSNPDIYNVFGQGTKVEIKRGGGGSGGGGSGGGGSGGGGSQVQLVQSGAEVKKPGASVKVSCKASGIDFNSNYYMCWVRQAPGQGLEWMGCIYVGSHVNTYYANWAKGRVTMTRDTSISTAYMELSSLRSEDTAVYYCATSGSSVLYFKFWGQGTLVTVSS"
